Patent US9987241B2, “Enzyme conjugate and prodrug cancer therapy” (The Board of Regents of the University of Oklahoma, priority 2014, dated 2018)

Columns and labels:
4T1 tumors = assay: Combination therapy on 4T1 tumors implanted orthotopically: tumor volume and survival; type: in vivo; conditions: BALB/cJ mice with orthotopic 4T1 tumors; protocols of FIGS. 8 and 9; treatment day 10 to 30
Description: Selenomethionine (5 mg/kg IP) was administered 10 h post fusion protein administration. Rapamycin (5 mg/kg IP) and cyclophosphamide (10 mg/kg IP) were administered daily. Treatment began on day 10 and continued until day 30 as indicated by the arrow. Statistical significance vs. untreated is indicated by * (p<0.001).

[1] = test system: CD4+ CD25+ FoxP3+ regulatory T cell; conditions: comparing mCGL-AV & Sel groups with and without Cyc, after 3 weeks of treatment
Excerpt: CD4+ CD25+ FoxP3+ regulatory T cell levels were quantified with flow cytometry and are presented as a percentage of spleen lymphocytes in BALB/c mice with 4T1 grafts after 3 weeks of treatment or healthy BALB/c mice with no tumor. Data is mean±SE (n=3 mice).

4T1 lung metastasis = assay: Lung metastasis nodules in 4T1-TdTomato model; type: in vivo, BALB/c mouse; conditions: after 3 weeks of treatment
Excerpt: A Leica stereomicroscope with an automated ImageJ macro was used to quantify fluorescent nodules in the lung. […] Median nodule size on the log scale is marked. Total nodules per group (n=3 mice) is summed and shown.

[2] = test system: hypoxia-inducible factor-1 alpha (HIF-1-α); assay: Immunohistochemistry staining of HIF-1-α in tumor sections; type: in vivo, BALB/c mice; conditions: after 3 weeks of treatment
Excerpt: Immunohistochemistry staining of HIF-1-α with DAB development was quantified from whole section images of mice sacrificed after 3 weeks of treatment. Data is presented as mean±SE (n=3 mice). Statistical significance between groups is indicated by +(p<0.01) or * (p<0.001).

[3] = test system: human MDA-MB-231 breast tumors; assay: Dissociation constants of fusion proteins on MDA-MB-231 cells grown in vitro; type: binding; conditions: for Kd: MDA-MB-231 cells in vitro, ± SE (n = 3), read-out: Dissociation Constant (Kd) MDA-MB-231
[4] = L-methioninase enzyme activity of fusion proteins; type: biochemical; conditions: for L-methioninase enzyme activity compared with Met-AV: versus Met-AV fusion protein
mouse 4T1 breast tumors = assay: AV- and AI-targeted mCGL enzyme prodrug therapy on orthotopic 4T1 tumors; type: in vivo; conditions: BALB/c mice; fusion protein 10 mg/kg IP daily with selenomethionine 5 mg/kg IP
Description: FIG. 6 is a comparison of efficacy of AV- and AI-targeted mCGL enzyme prodrug therapy with selenomethionine on 4T1 tumors implanted orthotopically in BALB/c mice. mCGL-AV and mCGL-AI were administered daily (10 mg/kg IP). Selenomethionine (5 mg/kg IP) was administered 10 h post fusion protein administration. Treatment began on day 11 and continued until day 18 as indicated by the arrow. Statistical significance vs. untreated is indicated by * (p<0.001). No significant difference was observed between treatment groups. […] Data is presented as mean volume±SE (n=6).

[5] = test system: human HAAE-1 endothelial cells; assay: Dissociation constants of fusion proteins on HAAE-1 cells grown in vitro; type: binding; conditions: for Kd: HAAE-1 cells in vitro, ± SE (n = 3), read-out: Dissociation Constant (Kd) HAAE-1
[6] = In vivo mCGL-AV plasma clearance (ELISA on serum); parameters: species or system mice; conditions: 10 mg/kg intraperitoneal
Description: An ELISA assay for mCGL-AV was performed on serum samples at intervals following intraperitoneal administration of mCGL-AV at 10 mg/kg. Data is presented as mean±SE (n=3).
Clearance of the mCGL-AV protein from the circulation of BALB/cJ mice occurred with pharmacokinetics similar to the other enzyme prodrug systems in SCID mice.

[7] = Fusion protein specific IgG + IgM titers after daily IP administration; type: in vivo; conditions: BALB/c mice

| Molecule | Median Survival (4T1 tumors) | Kd [3] | Binding to MDA-MB-231 tumor cells in vitro [3] | L-methioninase enzyme activity [4] | L-methioninase enzyme activity compared with Met-AV [4] | Negative effects of treatment (mouse 4T1 breast tumors) | Kd [5] | Binding to HAAE-1 human endothelial cells in vitro [5] | further results |
| --- | --- | --- | --- | --- | --- | --- | --- | --- | --- |
| O=P1(N(CCCl)CCCl)NCCCO1 (stereo not shown) [Cyc, cyclophosphamide] | 23 days | – | – | – | – | – | – | – | Regulatory T cell levels in spleen [1]: mild reduction in regulatory T cell levels; Lung metastatic nodules, number and size (4T1 lung metastasis): reduced numbers of metastases; HIF-1-α expression in tumor sections [2]: drastic reduction of HIF-1-α expression |
| CO[C@H]1C[C@@H]2CC[C@@H](C)[C@@](O)(O2)C(=O)C(=O)N2CCCC[C@H]2C(=O)O[C@H]([C@H](C)C[C@@H]2CC[C@@H](O)[C@H](OC)C2)CC(=O)[C@H](C)/C=C(\C)[C@@H](O)[C@@H](OC)C(=O)[C@H](C)C[C@H](C)/C=C/C=C/C=C/1C [Rap, rapamycin] | 14 days | – | – | – | – | – | – | – | – |
| C[Se]CC[C@H](N)C(=O)O [Sel, selenomethionine] | 18 days | – | – | – | – | – | – | – | – |
| mCGL-AI: fusion protein of mouse cystathione-γ-lyase mutant with three mutations (SEQ ID NO:3) and annexin I; post-cleavage SEQ ID NO:11 (protein, pre-cleavage amino acid sequence of the mCGL-AI fusion protein) MHHHHHHSSGLVPRGSGMKETAAAKFERQHMDSPDLGTDDDDKMLEVLFQGPMQKDASLSGFLPSFQHFATQAIHVGQEPEQWNSRAVVLPISLATTFKQDFPGQSSGFNYSRSGNPTRNCLEKAVAALDGAKHSLAFASGLAATITITHLLKAGDEIICMDEVYGGTNLYFRRVASEFGLKISFVDCSKTKLLEAAITPQTKLVWIETPTNPTLKLADIGACAQIVHKRGDIILVVDNTFMSAYFQRPLALGADICMCSATKYMNGHSDVVMGLVSVNSDDLNSRLRFLQNSLGAVPSPFDCYLCCRGLKTLQVRMEKHFKNGMAVARFLETNPRVEKVVYPGLPSHPQHELAKRQCSGCPGMVSFYIKGALQHAKAFLKNLKLFTLAVSLGGYESLAELPAIMTHASVPEKDRATLGINDTLIRLSVGLEDEQDLLEDLDRALKAAHPSGGGGSGGGGMAMVSEFLKQARFLENQEQEYVQAVKSYKGGPGSAVSPYPSFNVSSDVAALHKAIMVKGVDEATIIDILTKRTNAQRQQIKAAYLQENGKPLDEVLRKALTGHLEEVVLAMLKTPAQFDADELRGAMKGLGTDEDTLIEILTTRSNEQIREINRVYREELKRDLAKDITSDTSGDFRKALLALAKGDRCQDLSVNQDLADTDARALYEAGERRKGTDVNVFTTILTSRSFPHLRRVFQNYGKYSQHDMNKALDLELKGDIEKCLTTIVKCATSTPAFFAEKLYEAMKGAGTRHKALIRIMVSRSEIDMNEIKVFYQKKYGISLCQAILDETKGDYEKILVALCGGN | – | 0.68 nM | bound strongly | 1.0 U/mg | substantially equivalent | No negative effects were observed | 2.3 nM | bound strongly | – |
| mCGL-AV: fusion protein of mouse cystathione-γ-lyase mutant with three mutations (SEQ ID NO:3) and annexin V; post-cleavage SEQ ID NO:10 (protein, pre-cleavage amino acid sequence of the mCGL-AV fusion protein) MHHHHHHSSGLVPRGSGMKETAAAKFERQHMDSPDLGTDDDDKMLEVLFQGPMQKDASLSGFLPSFQHFATQAIHVGQEPEQWNSRAVVLPISLATTFKQDFPGQSSGFNYSRSGNPTRNCLEKAVAALDGAKHSLAFASGLAATITITHLLKAGDEIICMDEVYGGTNLYFRRVASEFGLKISFVDCSKTKLLEAAITPQTKLVWIETPTNPTLKLADIGACAQIVHKRGDIILVVDNTFMSAYFQRPLALGADICMCSATKYMNGHSDVVMGLVSVNSDDLNSRLRFLQNSLGAVPSPFDCYLCCRGLKTLQVRMEKHFKNGMAVARFLETNPRVEKVVYPGLPSHPQHELAKRQCSGCPGMVSFYIKGALQHAKAFLKNLKLFTLAVSLGGYESLAELPAIMTHASVPEKDRATLGINDTLIRLSVGLEDEQDLLEDLDRALKAAHPSGGGGSGGGGMATRGTVTDFPGFDGRADAEVLRKAMKGLGTDEDSILNLLTSRSNAQRQEIAQEFKTLFGRDLVDDLKSELTGKFEKLIVAMMKPSRLYDAYELKHALKGAGTDEKVLTEIIASRTPEELSAIKQVYEEEYGSNLEDDVVGDTSGYYQRMLVVLLQANRDPDTAIDDAQVELDAQALFQAGELKWGTDEEKFITIFGTRSVSHLRRVFDKYMTISGFQIEETIDRETSGNLEQLLLAVVKSIRSIPAYLAETLYYAMKGAGTDDHTLIRVVVSRSEIDLFNIRKEFRKNFATSLYSMIKGDTSGDYKKALLLLCGGEDD | 18 days | 2.5 nM | bound strongly | 1.3 U/mg | substantially equivalent | No negative effects were observed | 0.11 nM | bound strongly | Time to complete clearance from the circulation ([6]; BALB/cJ mice): ≤ 10 h; Clearance from the circulation (time) ([6]; SCID mice, ELISA on serum): < 10 h; Fusion protein specific IgG + IgM titer, Day 0 ([7]; daily 10 mg/kg IP, Day 0): Not detected; Fusion protein specific IgG + IgM titer, Day 7 ([7]; daily 10 mg/kg IP, Day 7): Not Detected; Fusion protein specific IgG + IgM titer, Day 14 ([7]; daily 10 mg/kg IP, Day 14): Not Detected; Fusion protein specific IgG + IgM titer, Day 21 ([7]; daily 10 mg/kg IP, Day 21): Not Detected; Immunogenicity: IgG+IgM antibody titers in the bloodstream ([7]; daily intraperitoneal administration, 21 day period): did not produce detectable IgG+IgM antibody titers |
